The values below come from FireProtDB (doi:10.1007/s00775-020-01777-0).

B1: Cytochrome c-553, B8C6L5 (parent)
chain: MKLTIVAALIASASAWTTPKSFESVKAAVAGAAVTAGVAVSPAFAGDVGAGEQIFNANCAACHAGGQNVIMPDKTLEKEALEQYLAGGRNEKAVMTQVTNGKNAMPAFGGRLSDEDIANVASYVIATSEAGWD

The series covers variants of B1. The following applies: Thalassiosira pseudonana; pH 7.4; Thermal; UV/Vis spectroscopy; HEPES; transition: 2; reversible: > 90% (Yes); whole UniProt chain shown.

With MKLTIVAALIASASAWTTPKSFESVKAAVAGAAVTAGVAVSPAFAGDVGAGEQIFNANCAACHAGGQNVIMPDKTLEKEALEQYLAGGRNEKSVMTQVTNGKNAMPAFGGRLSDEDIANVASYVISTSEAGWD [A93S A126S], the Tm was found to be 32.2 °C and the “unfolding enthalpy (van 't Hoff)” value is 38.2 kcal/mol.

On to MKLTIVAALIASASAWTTPKSFESVKAAVAGAAVTAGVAVSPAFAGDVGAGEQIFNANCAACHAGGQNVIMPDKTLEKEALEQYLAGGRNEKSVMTQVTNGKNAMPAFGGRLSDEDIANVASYVIATSEAGWD [A93S], for which the Tm amounted to 35.4 °C and the “unfolding enthalpy (van 't Hoff)” value came out at 45.9 kcal/mol.

For the variant MKLTIVAALIASASAWTTPKSFESVKAAVAGAAVTAGVAVSPAFAGDVGAGEQIFNANCAACHAGGQNVIMPDKTLEKEALEQYLAGGRNEKAVMTQVTNGKNAMPAFGGRLSDEDIANVASYVISTSEAGWD [A126S], the Tm was determined as 35.1 °C and the “unfolding enthalpy (van 't Hoff)” value stood at 40.8 kcal/mol.

With MKLTIVAALIASASAWTTPKSFESVKAAVAGAAVTAGVAVSPAFAGDVGAGEQIFNANCAACHAGGQNVIMPDKTLEKEALEQYLSGGRNEKAVMTQVTNGKNAMPAFGGRLSDEDIANVASYVIATSEAGWD [A86S], the midpoint of thermal melting (Tm) was found to be 38.9 °C and the “unfolding enthalpy (van 't Hoff)” value stood at 43.7 kcal/mol.
